Assay [1] has as its target SARS-CoV-2 S B.1.1.7 on CHO cells (SARS-CoV-2) (UniProt P0DTC2).
In assay [2] the target is SARS-CoV-2 S B.1.351 on CHO cells (SARS-CoV-2) (UniProt P0DTC2).

In assay [1], “LY-CoV1404 (bebtelovimab), full-length human IgG1 mAb (antibody)” yielded a VSV pseudovirus neutralisation IC50 of 1 ng/mL, a VSV pseudovirus neutralisation IC90 of 9 ng/mL, a lentiviral pseudovirus neutralisation IC50 of 4 ng/mL and a lentiviral pseudovirus neutralisation IC90 of 11 ng/mL. In assay [2], this substance came in with a VSV pseudovirus neutralisation IC50 of 2 ng/mL, a VSV pseudovirus neutralisation IC90 of 9 ng/mL, a lentiviral pseudovirus neutralisation IC50 of 3 ng/mL and a lentiviral pseudovirus neutralisation IC90 of 9 ng/mL.

Values taken from article PMC9035363.
